Data reported in patent US20180305451A1 (COMPUGEN, published 2018).

T1: human HIDE1-flag (human, UniProt A8MVS5 20-230)
T1 construct: Over-expressed on HEK293, SK-MEL-5, CHO-S and CHO-S OKT3 cells (pMSCV or pcDNA3.1); whole cell extracts in WB; Entry includes the signal peptide; also called hHIDE1 Flag
T1 sequence: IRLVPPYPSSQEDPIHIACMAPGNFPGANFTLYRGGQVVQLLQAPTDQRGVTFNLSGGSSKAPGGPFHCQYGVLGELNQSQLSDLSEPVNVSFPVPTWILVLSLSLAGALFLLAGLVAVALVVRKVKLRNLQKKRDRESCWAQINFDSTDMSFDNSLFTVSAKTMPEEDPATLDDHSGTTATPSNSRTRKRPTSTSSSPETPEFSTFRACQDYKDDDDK

T2: human HIDE1 (human, UniProt A8MVS5 20-230)
T2 construct: Endogenous on U937, HL-60, THP-1 cells, blood monocytes, AML blasts and dendritic cells; also called C19orf38; hHIDE1
T2 sequence: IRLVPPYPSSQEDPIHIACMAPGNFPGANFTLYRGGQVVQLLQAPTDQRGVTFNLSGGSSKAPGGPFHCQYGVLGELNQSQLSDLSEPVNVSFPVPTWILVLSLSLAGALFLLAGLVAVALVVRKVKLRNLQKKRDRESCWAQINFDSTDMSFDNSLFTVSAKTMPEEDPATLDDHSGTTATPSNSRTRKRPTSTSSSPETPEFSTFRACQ

T3: mouse HIDE1 (mouse, UniProt Q75VT8 22-222)
T3 construct: Endogenous on EL4, YAC-1, J774A.1/J774A.2 cells; also called AB124611; mHIDE1
T3 sequence: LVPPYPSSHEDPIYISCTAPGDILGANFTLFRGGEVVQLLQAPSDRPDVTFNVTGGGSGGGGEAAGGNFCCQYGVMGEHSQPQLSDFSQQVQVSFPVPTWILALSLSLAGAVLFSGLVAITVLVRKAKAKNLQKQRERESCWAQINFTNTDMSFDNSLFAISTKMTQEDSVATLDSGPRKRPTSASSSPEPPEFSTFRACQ


What was measured:
human HIDE1-flag [1] = target: T1, human HIDE1-flag; experiment: FACS titration on CHO-S cells over-expressing human HIDE1 Flag (curves in FIG. 96A)
Experimental: (§1) FIG. 96: Affinity measurements using FACS application for the anti-human HIDE1 reformatted Fab's on CHO-S cells over-expressing human HIDE1 Flag protein. (A)CHO-S cells over-expressing the human HIDE1 Flag (circle dots) or HEK293 transduced with empty vector (square dots) were analyzed by FACS using Serotec anti-Human HIDE1 reformatted antibodies (1-5) in 7 concentrations-series dilution 1:3, 10-0.01 μg/ml. Detection was carried out using Goat Anti Human-PE secondary Ab. (B) Summary table of Serotec anti-human HIDE1 reformatted antibodies 1-5 FACS analysis, the Geo mean ratio of HEK293 cells over-expressing the human HIDE1 Flag/HEK293 transduced with empty vector and the cross reactive validation, the Geo-mean ratio of HEK293 cells over-expressing the mouse/cyno HIDE1 Flag/HEK293 transduced/transfected with empty vector. And Kd (nM) for each reformatted Fab.
The affinity The affinity measurements of the reformatted Serotec's Ab's (full hIgG1 Abs) against human HIDE1, using FACS application were tested using CHO-S cell over-expressing human HIDE1. CHO-S cells transduced with an empty vector were used as a negative control.
As shown in FIG. 96. the binding of 5 out of 5 anti-human HIDE1 reformatted Ab's (1-5) to the CHO-S cells over-expressing human HIDE1 Flag protein (circle dots) is higher than the binding of these reformatted Ab's to the empty vector cells (square dots). Two of the five antibodies (2 and 3) reaches saturation at the concentrations that were measured. The Kd value and R square are represented in the figure.

human HIDE1-flag [2] = target: T1, human HIDE1-flag; experiment: FACS, Geo mean ratio of HEK293 cells over-expressing human HIDE1 Flag to HEK293 empty vector, antibody 10 ug/ml
Experimental: as §1
The performance of the reformatted Serotec's antibodies against human HIDE1, in FACS application were tested using HEK293 cell over-expressing human HIDE1 Flag, mouse HIDE1 or cyno HIDE1. HEK293 cells transduced/transfected with an empty vector were used as a negative control

human HIDE1 = target: T2, human HIDE1; experiment: FACS titration on 293T-huHIDE1 cells, human IgG4 (preliminary FACS KD)
Experimental: (§2) FACS screening of reformatted IgG4 antibodies: The cell lines described in paragraph [001066] (“FACS screening of PPE”) were mixed with FACS buffer containing the purified anti-HIDE1 IgGs or isotype controls. […] Cells were washed again and fluorescence was detected using an Intellicyt HTFC screening system (Intellicyt). Data were analyzed using FCS Express (DeNovo) and plotted for affinity calculations (KD) in GraphPad Prism (GraphPad Software, Inc.). Note that each anti-HIDE1 antibody was tested over a titration range from 0-80 μg/mL.
(§3) Overview of FACS binding results for human IgG4 antibodies reformatted from Fab screening hits. […] IgGs from the same H-CDR3 family are indicated by the same color, either blue or green. CPA.12.003 & CPA.12.008 have identical heavy chain CDR-3 regions and minor differences in framework regions or other CDRs. The same holds for CPA.12.004 & CPA.12.013. N.B. not binding.

mouse HIDE1 = target: T3, mouse HIDE1; experiment: FACS on 293T-moHIDE1 cells, human IgG4
Experimental: as §2, §3

Kd (human HIDE1-flag [1]) [nM] | rMFI OX/EV, 10ug/ml, hHIDE1 (human HIDE1-flag [2]) | Kd (human HIDE1) [nM] | Binder | binding result (mouse HIDE1)
10.8 | 276 |  | αhHIDE1_AbD25753_hIgG1_Ser_mAb (antibody, V domains shown) VH: EVQLVQSGAEVKKPGESLKISCKGSGYSFTNYWIHWVRQMPGKGLEWMGIIDPGNSFTRYSPSFQGQVTISADKSISTAYLQWSSLKASDTAMYYCARGDGLYGGSDGYSMGGFDNWGQGTLVTVSS VL: DIQMTQSPSSLSASVGDRVTITCRASQTIWNYLAWYQQKPGKAPKLLIYDASNLQSGVPSRFSGSGSGTDFTLTISSLQPEDFATYYCQQYSHFPHTFGQGTKVEIK | 
96.7 | 117 |  | αhHIDE1_AbD25760_hIgG1_Ser_mAb (antibody, V domains shown, also called AB-510; Ab-510) VH: QVQLVQSGAEVKKPGSSVKVSCKASGGTFSDYAINWVRQAPGQGLEWMGGIIPNFGTANYAQKFQGRVTITADESTSTAYMELSSLRSEDTAVYYCARGMRSLGGLSYYFDLWGQGTLVTVSS VL: DIQMTQSPSSLSASVGDRVTITCRASQSINSYLNWYQQKPGKAPKLLIYAASSLQSGVPSRFSGSGSGTDFTLTISSLQPEDFATYYCQQYIHYPITFGQGTKVEIK | 
 |  | 1.3 | CPA.12.008 human IgG4 (antibody, V domains shown, also called CPA.12.008-H4) VH: QVQLQESGPGLVTPSETLSLTCTVSGGSISSVSYYWGWVRQPPGKGLEWIGSIYYSGTTAHNPSLKSRVTMAVDTSKNQFSLSLSSVTAADTAVYFCARGWRYYEDYYFDHWGQGTLVTVSS VL: AIRMTQSPSSLSASVGDRVTITCQASQDISNYLNWYQQKPGKAPKSLIYAASSLQSGVPSKFSGSGSGTDFTLTISSLQPEDFATYYCQQYYSYPLTFGGGTKVEIKR | no binding (tested: titration 0-80 µg/mL)
 |  | 13 | CPA.12.014 human IgG4 (antibody, V domains shown, also called CPA.12.014-H4) VH: QVTLKESGPALVTPTQNLTLTCTVSGGSISSSSYYWGWIRQPPGKGLEWIGSIYYSGSTYYNPSLKSRVTISVDTSKNQFSLKLSSVTAADTAVYYCARRRNSSGWFYFDYWGQGTLVTVSS VL: QSVLTQPPSVSGAPRQRVTISCSGSRSNIGDNAVNWYQHPPGKAPKLLIYYDDLLPSGVSDRFSGSKSGTSASLAISGLQSEDEADYYCATWDDSLNGHVFGTGTKLTVLG | no binding (tested: titration 0-80 µg/mL)
 |  | 14 | CPA.12.007 human IgG4 (antibody, V domains shown, also called CPA.12.007-H4) VH: EVQLVESGGGVVQPGESLRLSCAASGFTFSSYGFHWVRQSPGEGLEWLAVISYDGTSKSYADSVKGRFTVSRDNSKETLYLQLSSLRREDTALYYCARDTWGYYYGMDVWGQGTTVTVSS VL: DIQMTQSPSFLSGSVGDRVSISCRASQDIRSHLAWYQRKPGEAPKLLIYTASSLQGGVPLRFSGSGSGTEFTLTISSLQPEDSATYYCQHLHLYPLTFGGGTKLEIKR | no binding (tested: titration 0-80 µg/mL)
 |  | 11 | CPA.12.015 human IgG4 (antibody, V domains shown, also called CPA.12.015-H4) VH: QVQLQESGPGLVKPSETLSLTCTVSGGSISSSSYYWGWIRQPPGKGLEWIGSIYYSGSTHYNPSLKSRVTISVDTSKNQFSLKLSSVTAADTAVYYCARVYYGSGTGGAFDIWGQGTMVTVSS VL: QSVLTQPPSVSGAPGQRVTISCTGSSSNIGAAYDVHWYQQLPGTAPKLLIYGDTIRPSGVPDRFSGSKSGTSASLAITGLQAEDEADYYCQSYDSSLSGSWVFGGGTQLTVLG | no binding (tested: titration 0-80 µg/mL)
 |  | 2.6 | CPA.12.013 human IgG4 (antibody, V domains shown, also called CPA.12.013-H4) VH: EVQLVETGGGLIQPGRSLRLSCVASDFRFSNHAMHWVRQAPGKELEWVAVISSDGSNRQYAYSVKGRFTISRDNSKNTLYLEMNILGPEDTAVYFCVRSHLGPEWYYGMDVWGQGTTVTVSS VL: DIQMTQSPSSLSASVGDRVTITCQASHDIRKFLNWYQQHPGKAPKLLIYDAAYSEIGVPSRFSGGGSGTDFTFTINNLQPDDFATYYCQQYESLPFTFGPGTKVDIKR | no binding (tested: titration 0-80 µg/mL)
9.85 | 270 |  | αhHIDE1_AbD25754_hIgG1_Ser_mAb (antibody, V domains shown) VH: QVQLVQSGAEVKKPGASVKVSCKASGYTFSGYGMHWVRQAPGQGLEWMGIISPSNGNTNYAQKFQGRVTMTRDTSISTAYMELSRLRSEDTAVYYCAREVYYGLDVWGQGTLVTVSS VL: DIQMTQSPSSLSASVGDRVTITCRASQSISSWLNWYQQKPGKAPQLLIYGASSLQSGVPSRFSGSGSGTDFTLTISSLQPEDFATYYCQQYISIPITFGQGTKVEIK | 
45.4 | 236 |  | αhHIDE1_AbD25755_hIgG1_Ser_mAb (antibody, V domains shown) VH: QVQLVQSGAEVKKPGSSVKVSCKASGGTFSSYAISWVRQAPGQGLEWMGGIVPKFGTAYYAQKFQGRVTITADESTSTAYMELSSLRSEDTAVYYCARENLVYSAIAIWGQGTLVTVSS VL: DIQMTQSPSSLSASVGDRVTITCRASQDISNWLNWYQQKPGKAPKLLIYGASSLQSGVPSRFSGSGSGTDFTLTISSLQPEDFATYYCQQVTSTPFTFGQGTKVEIK | 
 |  | 2.5 | CPA.12.006 human IgG4 (antibody, V domains shown, also called CPA.12.006-H4) VH: EVQLVESGGGVVQPGRSLRLSCAASGFTFSSFAMHWVRQAPGKGPEWLGIILYEGGHVVYADSVRGRLTISRDNSKNTLYLQMDSLRDEDTAVYYCAKGFYHAFDVWGQGTMVTVSS VL: QAVLTQPASLSASPGASASLTCTLRSGINVGTYRIYWYQQKPGSPPQYLLRYKSDSDKQQGSGVPSRFSGSKDASANAGILLISGLQSEDEADYYCMIWHSSAWVFGGGTQLTVLG | no binding (tested: titration 0-80 µg/mL)
 |  | 1.3 | CPA.12.012 human IgG4 (antibody, V domains shown, also called CPA.12.012-H4; CPA.12.0012-H4) VH: QVQLVESGGGVVQPGRSLRLSCAASGFTFSSYAMHWVRQAPGKGLEWVAVISYDGSNKYYADSVKGRFTISRDNSKNTLYLQMNSLRAEDTAVYYCARSSGSSWSNIAYWGQGTLVTVSS VL: QSVLTQPPSVSGAPGQRVTISCIGSSSNIGAGYDVHWYRQLPGTAPKLLIYDNTNRPSGVPDRFSASKSGISASLAITGLQAEDEADYYCQSYDSNLSGVFGGGTQLTVLG | no binding (tested: titration 0-80 µg/mL)
 |  | 1.7 | CPA.12.009 human IgG4 (antibody, V domains shown, also called CPA.12.009-H4) VH: QMQLVQSGAEVKKPGASVKVSCKASGYTFTTHAFSWVRQAPGLGLEWMGWISTYNGNTKYEQKFQGRVTLTTDSSTNTAYMELRSLRSDDTAVYYCVRDSRAFDVWGQGTMVTVSS VL: DIQLTQSPSFLSASVGDRVTITCRASQGINSYLAWYQQKPGAAPKLLIYAASTLQSGVPSRFSGSGSGTEFTLTISSLQPEDFATYYCQQLNTYPLIFGQGTRLEIKR | no binding (tested: titration 0-80 µg/mL)
